# Experiments:
# human Kv1.3 = human Kv1.3 (Homo sapiens, UniProt P22001); experiment: cell-based or functional assay
# human Kv1.1 = human Kv1.1 (Homo sapiens, UniProt Q09470); experiment: cell-based or functional assay
# Chain of human Kv1.1 (Q09470 whole entry): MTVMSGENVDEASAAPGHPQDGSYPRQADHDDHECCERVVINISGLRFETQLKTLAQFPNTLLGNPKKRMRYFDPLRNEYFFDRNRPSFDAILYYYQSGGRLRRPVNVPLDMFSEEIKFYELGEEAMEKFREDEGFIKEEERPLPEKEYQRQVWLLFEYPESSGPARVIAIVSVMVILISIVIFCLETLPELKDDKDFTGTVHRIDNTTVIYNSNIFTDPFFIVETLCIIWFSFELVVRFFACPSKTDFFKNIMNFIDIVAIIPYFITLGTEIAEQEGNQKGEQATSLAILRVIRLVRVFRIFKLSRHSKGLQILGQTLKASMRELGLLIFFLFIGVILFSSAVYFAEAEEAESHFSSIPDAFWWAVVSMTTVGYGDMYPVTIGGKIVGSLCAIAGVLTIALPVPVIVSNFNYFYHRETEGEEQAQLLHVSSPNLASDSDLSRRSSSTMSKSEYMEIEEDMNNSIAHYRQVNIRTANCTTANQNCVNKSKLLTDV
# Chain of human Kv1.3 (P22001 whole entry): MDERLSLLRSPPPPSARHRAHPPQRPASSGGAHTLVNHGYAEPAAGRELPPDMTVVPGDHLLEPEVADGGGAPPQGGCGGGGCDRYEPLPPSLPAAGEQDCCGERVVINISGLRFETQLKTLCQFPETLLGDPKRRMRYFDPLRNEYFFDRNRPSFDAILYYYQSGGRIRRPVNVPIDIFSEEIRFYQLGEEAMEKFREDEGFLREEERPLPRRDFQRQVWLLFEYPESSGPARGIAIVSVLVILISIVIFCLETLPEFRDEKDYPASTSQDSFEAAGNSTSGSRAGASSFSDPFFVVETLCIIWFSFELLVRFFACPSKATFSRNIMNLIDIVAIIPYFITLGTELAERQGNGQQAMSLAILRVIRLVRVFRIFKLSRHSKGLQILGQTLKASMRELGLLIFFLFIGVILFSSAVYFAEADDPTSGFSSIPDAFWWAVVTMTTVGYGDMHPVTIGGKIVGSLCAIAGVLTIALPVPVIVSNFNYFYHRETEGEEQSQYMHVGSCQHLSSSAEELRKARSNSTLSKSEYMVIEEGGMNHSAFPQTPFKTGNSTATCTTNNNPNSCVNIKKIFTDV
Substance,Kv1.3 (IWQ) IC50 (human Kv1.3) [nM],WB (IFNg) IC50 (human Kv1.3) [nM],WB (IL-2) IC50 (human Kv1.3) [nM],Kv1.1 (IWQ) IC50 (human Kv1.1) [nM]
"[Glu4; Lys16,29;Arg18,30; Nle21]ShK-amide (peptide)",0.269,1.33,1.96,–
"[Glu4; Lys16,29; 1-Nal26;Arg30]ShK-amide (peptide)",0.384,0.598,0.712,–
"[Glu4;Lys16,29;1-Nal26;Arg30;Nle21]ShK-amide (peptide)",1.66,17.4,10.7,3.3
